Assay results from US20180094075A1 (Pfizer, published 2018).

How the values were obtained:
[1] = biological target: human PTK7 expressed on cells (cancer cell lines with endogenous PTK7; HEK293T-PTK7 over-expressing cells) (human) (UniProt Q13308); assay: flow cytometry, TF1a cells, 10 µg/ml Ab
[2] = biological target: human PTK7 expressed on cells (cancer cell lines with endogenous PTK7; HEK293T-PTK7 over-expressing cells) (human) (UniProt Q13308); assay: flow cytometry, EKVX cells, 10 µg/ml Ab
[3] = biological target: human PTK7 expressed on cells (cancer cell lines with endogenous PTK7; HEK293T-PTK7 over-expressing cells) (human) (UniProt Q13308); assay: flow cytometry, H358 cells, 10 µg/ml Ab
[4] = biological target: human PTK7 expressed on cells (cancer cell lines with endogenous PTK7; HEK293T-PTK7 over-expressing cells) (human) (UniProt Q13308); assay: flow cytometry, BT-549 cells, 10 µg/ml Ab
[5] = biological target: human PTK7 expressed on cells (cancer cell lines with endogenous PTK7; HEK293T-PTK7 over-expressing cells) (human) (UniProt Q13308); assay: flow cytometry, TF1 cells, 10 µg/ml Ab
[6] = biological target: human PTK7 expressed on cells (cancer cell lines with endogenous PTK7; HEK293T-PTK7 over-expressing cells) (human) (UniProt Q13308); assay: flow cytometry, HCC1806 cells, 10 µg/ml Ab
[7] = biological target: human PTK7 expressed on cells (cancer cell lines with endogenous PTK7; HEK293T-PTK7 over-expressing cells) (human) (UniProt Q13308); assay: flow cytometry, HCC70 cells, 10 µg/ml Ab
[8] = biological target: human PTK7 expressed on cells (cancer cell lines with endogenous PTK7; HEK293T-PTK7 over-expressing cells) (human) (UniProt Q13308); assay: flow cytometry, HL60 cells, 10 µg/ml Ab
[9] = biological target: human PTK7 expressed on cells (cancer cell lines with endogenous PTK7; HEK293T-PTK7 over-expressing cells) (human) (UniProt Q13308); assay: flow cytometry, H446 cells, 10 µg/ml Ab
[10] = biological target: human PTK7 expressed on cells (cancer cell lines with endogenous PTK7; HEK293T-PTK7 over-expressing cells) (human) (UniProt Q13308); assay: flow cytometry, HCC38 cells, 10 µg/ml Ab
[11] = biological target: human PTK7 expressed on cells (cancer cell lines with endogenous PTK7; HEK293T-PTK7 over-expressing cells) (human) (UniProt Q13308); assay: flow cytometry, NB4 cells, 10 µg/ml Ab
[12] = biological target: human PTK7 expressed on cells (cancer cell lines with endogenous PTK7; HEK293T-PTK7 over-expressing cells) (human) (UniProt Q13308); assay: flow cytometry, H661 cells, 10 µg/ml Ab
[13] = biological target: human PTK7 expressed on cells (cancer cell lines with endogenous PTK7; HEK293T-PTK7 over-expressing cells) (human) (UniProt Q13308); assay: flow cytometry, H522 cells, 10 µg/ml Ab
[14] = biological target: human PTK7 expressed on cells (cancer cell lines with endogenous PTK7; HEK293T-PTK7 over-expressing cells) (human) (UniProt Q13308); assay: flow cytometry, MDAMB468 cells, 10 µg/ml Ab
[15] = biological target: human PTK7 expressed on cells (cancer cell lines with endogenous PTK7; HEK293T-PTK7 over-expressing cells) (human) (UniProt Q13308); assay: flow cytometry, H69 cells, 10 µg/ml Ab
[16] = biological target: human PTK7 expressed on cells (cancer cell lines with endogenous PTK7; HEK293T-PTK7 over-expressing cells) (human) (UniProt Q13308); assay: flow cytometry, U937 cells, 10 µg/ml Ab
[17] = biological target: human PTK7 expressed on cells (cancer cell lines with endogenous PTK7; HEK293T-PTK7 over-expressing cells) (human) (UniProt Q13308); assay: flow cytometry, H1299 cells, 10 µg/ml Ab
[18] = biological target: human PTK7 expressed on cells (cancer cell lines with endogenous PTK7; HEK293T-PTK7 over-expressing cells) (human) (UniProt Q13308); assay: flow cytometry, MiaPaca cells, 10 µg/ml Ab
[19] = biological target: human PTK7 expressed on cells (cancer cell lines with endogenous PTK7; HEK293T-PTK7 over-expressing cells) (human) (UniProt Q13308); assay: flow cytometry, BxPC3 cells, 10 µg/ml Ab
[20] = biological target: human PTK7 expressed on cells (cancer cell lines with endogenous PTK7; HEK293T-PTK7 over-expressing cells) (human) (UniProt Q13308); assay: flow cytometry, THP-1 cells, 10 µg/ml Ab
[21] = biological target: human PTK7 expressed on cells (cancer cell lines with endogenous PTK7; HEK293T-PTK7 over-expressing cells) (human) (UniProt Q13308); assay: flow cytometry, H1975 cells, 10 µg/ml Ab
[22] = biological target: human PTK7 expressed on cells (cancer cell lines with endogenous PTK7; HEK293T-PTK7 over-expressing cells) (human) (UniProt Q13308); assay: flow cytometry, HEL92.1 cells, 10 µg/ml Ab
[23] = biological target: human PTK7 expressed on cells (cancer cell lines with endogenous PTK7; HEK293T-PTK7 over-expressing cells) (human) (UniProt Q13308); assay: flow cytometry, Raji cells, 10 µg/ml Ab
[24] = biological target: human PTK7 expressed on cells (cancer cell lines with endogenous PTK7; HEK293T-PTK7 over-expressing cells) (human) (UniProt Q13308); assay: flow cytometry, SKBR3 cells, 10 µg/ml Ab
[25] = biological target: human PTK7 expressed on cells (cancer cell lines with endogenous PTK7; HEK293T-PTK7 over-expressing cells) (human) (UniProt Q13308); assay: flow cytometry, H526 cells, 10 µg/ml Ab
[26] = biological target: human PTK7 expressed on cells (cancer cell lines with endogenous PTK7; HEK293T-PTK7 over-expressing cells) (human) (UniProt Q13308); assay: flow cytometry, Hs700T cells, 10 µg/ml Ab
[27] = biological target: human PTK7 expressed on cells (cancer cell lines with endogenous PTK7; HEK293T-PTK7 over-expressing cells) (human) (UniProt Q13308); assay: flow cytometry, HCC1937 cells, 10 µg/ml Ab
[28] = biological target: human PTK7 expressed on cells (cancer cell lines with endogenous PTK7; HEK293T-PTK7 over-expressing cells) (human) (UniProt Q13308); assay: flow cytometry, HL60 MX2 cells, 10 µg/ml Ab

human PTK7 expressed on cells (cancer cell lines with endogenous PTK7; HEK293T-PTK7 over-expressing cells) (human), sequence (Q13308 31-1070 L93P limits assumed): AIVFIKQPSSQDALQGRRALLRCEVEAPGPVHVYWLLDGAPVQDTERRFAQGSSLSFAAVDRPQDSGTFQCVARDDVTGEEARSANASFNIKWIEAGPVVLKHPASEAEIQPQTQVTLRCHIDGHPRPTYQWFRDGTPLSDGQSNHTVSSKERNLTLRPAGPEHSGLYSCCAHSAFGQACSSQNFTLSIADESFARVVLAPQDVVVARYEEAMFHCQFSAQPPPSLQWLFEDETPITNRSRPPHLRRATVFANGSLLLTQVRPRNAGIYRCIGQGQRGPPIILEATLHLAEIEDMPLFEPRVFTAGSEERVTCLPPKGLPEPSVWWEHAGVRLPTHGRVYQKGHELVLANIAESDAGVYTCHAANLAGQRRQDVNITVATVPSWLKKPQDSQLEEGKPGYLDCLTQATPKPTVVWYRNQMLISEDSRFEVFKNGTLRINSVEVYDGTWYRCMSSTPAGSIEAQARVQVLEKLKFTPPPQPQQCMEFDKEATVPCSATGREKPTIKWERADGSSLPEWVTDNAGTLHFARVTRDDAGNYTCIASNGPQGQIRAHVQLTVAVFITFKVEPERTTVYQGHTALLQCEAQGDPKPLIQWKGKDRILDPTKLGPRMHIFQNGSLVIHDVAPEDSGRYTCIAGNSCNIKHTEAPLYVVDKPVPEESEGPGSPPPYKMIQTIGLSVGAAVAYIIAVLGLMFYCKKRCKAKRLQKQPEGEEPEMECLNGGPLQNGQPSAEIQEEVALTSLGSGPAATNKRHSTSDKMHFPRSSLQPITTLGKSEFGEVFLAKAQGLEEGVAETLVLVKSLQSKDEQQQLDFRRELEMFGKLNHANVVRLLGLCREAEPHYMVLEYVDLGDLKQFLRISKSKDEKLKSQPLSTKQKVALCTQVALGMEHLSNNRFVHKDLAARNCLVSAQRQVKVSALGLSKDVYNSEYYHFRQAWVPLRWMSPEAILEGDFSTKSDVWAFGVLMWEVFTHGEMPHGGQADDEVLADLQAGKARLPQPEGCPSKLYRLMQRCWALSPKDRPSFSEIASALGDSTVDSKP

Q: How did the Mean Fluorescent Intensity [1] turn out when “Negative Control Ab (Table 8) (antibody)” was run?
A: 6.2

Q: And the Mean Fluorescent Intensity [2]?
A: 3.1

Q: And the Mean Fluorescent Intensity [3]?
A: 4.5

Q: And the Mean Fluorescent Intensity [4]?
A: 3.6

Q: What about the Mean Fluorescent Intensity [5] of the same substance?
A: 5.9

Q: What about the Mean Fluorescent Intensity [6] of the same substance?
A: 4.6

Q: And the Mean Fluorescent Intensity [7]?
A: 9.4

Q: What about the Mean Fluorescent Intensity [8] of the same substance?
A: 10.9

Q: And the Mean Fluorescent Intensity [9]?
A: 7.1

Q: And the Mean Fluorescent Intensity [10]?
A: 7.2

Q: And the Mean Fluorescent Intensity [11]?
A: 6.8

Q: What about the Mean Fluorescent Intensity [12] of the same substance?
A: 3.8

Q: And the Mean Fluorescent Intensity [13]?
A: 3.8

Q: And the Mean Fluorescent Intensity [14]?
A: 12

Q: And the Mean Fluorescent Intensity [15]?
A: 11.2

Q: And the Mean Fluorescent Intensity [16]?
A: 5

Q: And the Mean Fluorescent Intensity [17]?
A: 3

Q: What about the Mean Fluorescent Intensity [18] of the same substance?
A: 3.5

Q: What about the Mean Fluorescent Intensity [19] of the same substance?
A: 4.6

Q: What about the Mean Fluorescent Intensity [20] of the same substance?
A: 4

Q: What about the Mean Fluorescent Intensity [21] of the same substance?
A: 4.8

Q: And the Mean Fluorescent Intensity [22]?
A: 7.7

Q: And the Mean Fluorescent Intensity [23]?
A: 20.3

Q: And the Mean Fluorescent Intensity [24]?
A: 14.9

Q: And the Mean Fluorescent Intensity [25]?
A: 12.2

Q: And the Mean Fluorescent Intensity [26]?
A: 4.9

Q: And the Mean Fluorescent Intensity [27]?
A: 7.8

Q: What about the Mean Fluorescent Intensity [28] of the same substance?
A: 25.2
